Measured values reported in paper PMC11257942.

Target: major core protein A10 of vaccinia virus (gene product of A10) (vaccinia virus (VACV) strain Western Reserve (WR))
Experiment: cryo-EM structure

Substance “major core protein A10 of vaccinia virus (gene product of A10) (natural protein)” has a stoichiometry N of 3.
